Experimental data reported in paper PMC9159911.

System: SmpB (small protein B) (Aeromonas veronii)
Test: MST
Settings: […], pH 7.4), temperature not stated, binding buffer not stated

Substance | Kd
PompA C52AT (native ompA promoter fragment) | 0.93 µM
PompA T52GC (CAT at +52 to TGC) | 126 µM
